Results published in article PMC9243173, “Iron-regulated assembly of the cytosolic iron–sulfur cluster biogenesis machinery” (The Journal of Biological Chemistry, 2022).

Key:
Test in all cases: affinity purification with mass spectrometry; anti-HA beads on lysates of Flp-In 293 cells expressing the 3HA-3FLAG-tagged bait (NUBP2, wildtype or mutant CIAO3); targeted proteomics assay (parallel reaction monitoring) of CIA components and substrates; CIAO3 purifications normalised to CIAO3; wildtype CIAO3 cells also treated with FAC or DFO for 8 h
Conditions in all cases: partners not purified
[1] = target: T1, 3HA-3FLAG-CIAO3, wildtype (human, UniProt Q9H6Q4 1-476)
T1 construct: human CIAO3 (NARFL) cDNA, amplified with primers from the start codon to the stop codon, in pcDNA5/FRT with an N-terminal tandem 3xHA-3xFLAG tag; also called 3HA-3FLAG-tagged CIAO3; wildtype CIAO3; source: Flp-In T-REx 293, stably expressed, induced with doxycycline, in lysate; not shown: 3xHA, N-terminal, kept; 3xFLAG, N-terminal, kept

3HA-3FLAG-CIAO3-C71S = target: T2, 3HA-3FLAG-CIAO3-C71S (human, UniProt Q9H6Q4 1-476, C71S)
T2 construct: human CIAO3 (NARFL), as m13, with C71S (N-terminal Fe-S cluster site); also called C71S mutant; source: Flp-In T-REx 293, stably expressed, induced with doxycycline, in lysate; not shown: 3xHA, N-terminal, kept; 3xFLAG, N-terminal, kept

[2] = target: T3, 3HA-3FLAG-CIAO3-C190S/C395S (human, UniProt Q9H6Q4 1-476, C190S | C395S)
T3 construct: human CIAO3 (NARFL), as m13, with C190S and C395S (C-terminal Fe-S cluster site); also called C190S/C395S mutant; source: Flp-In T-REx 293, stably expressed, induced with doxycycline, in lysate; not shown: 3xHA, N-terminal, kept; 3xFLAG, N-terminal, kept

[3] = target: T4, 3HA-3FLAG-CIAO3-C71S/C190S/C395S (human, UniProt Q9H6Q4 1-476, C71S | C190S | C395S)
T4 construct: human CIAO3 (NARFL), as m13, with C71S, C190S and C395S; also called C71S/C190S/C395S mutant; source: Flp-In T-REx 293, stably expressed, induced with doxycycline, in lysate; not shown: 3xHA, N-terminal, kept; 3xFLAG, N-terminal, kept
T4 sequence (Q9H6Q4 whole entry C71S/C190S/C395S): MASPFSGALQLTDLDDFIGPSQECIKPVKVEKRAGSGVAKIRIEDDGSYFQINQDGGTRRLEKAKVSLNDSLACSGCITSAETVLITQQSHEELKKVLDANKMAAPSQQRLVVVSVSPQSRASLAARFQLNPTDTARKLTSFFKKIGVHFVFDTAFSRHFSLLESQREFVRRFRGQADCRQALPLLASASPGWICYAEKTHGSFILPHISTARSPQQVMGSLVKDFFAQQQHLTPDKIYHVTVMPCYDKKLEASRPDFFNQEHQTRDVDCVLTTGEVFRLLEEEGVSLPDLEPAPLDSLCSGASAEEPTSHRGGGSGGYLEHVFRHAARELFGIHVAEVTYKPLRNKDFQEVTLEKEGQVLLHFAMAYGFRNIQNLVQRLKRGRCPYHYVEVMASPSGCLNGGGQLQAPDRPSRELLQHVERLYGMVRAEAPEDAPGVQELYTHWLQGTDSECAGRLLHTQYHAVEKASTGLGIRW

T2 sequence (Q9H6Q4 whole entry C71S): as the sequence (Q9H6Q4 whole entry C71S/C190S/C395S) above, with S190C, S395C counted along it
T1 sequence (Q9H6Q4 whole entry): as the sequence (Q9H6Q4 whole entry C71S/C190S/C395S) above, with S71C, S190C, S395C counted along it
T3 sequence (Q9H6Q4 whole entry C190S/C395S): as the sequence (Q9H6Q4 whole entry C71S/C190S/C395S) above, with S71C counted along it

Binder	fold reduction in iron-deficient (DFO) against iron-replete (FAC) conditions [1] [fold]	fold reduction against wildtype CIAO3 (3HA-3FLAG-CIAO3-C71S) [fold]	fold reduction against wildtype CIAO3 [2] [fold]	fold reduction against wildtype CIAO3 [3] [fold]	fold decrease against wildtype CIAO3 (3HA-3FLAG-CIAO3-C71S) [fold]	fold change against wildtype CIAO3 [3] [fold]
nucleotide-binding protein 1 (NUBP1) (natural protein, human (endogenous in Flp-In T-REx 293), UniProt P53384 1-320, looked up, also called NBP35; source: endogenous, Flp-In T-REx 293 lysate) MEEVPHDCPGADSAQAGRGASCQGCPNQRLCASGAGATPDTAIEEIKEKMKTVKHKILVLSGKGGVGKSTFSAHLAHGLAEDENTQIALLDIDICGPSIPKIMGLEGEQVHQSGSGWSPVYVEDNLGVMSVGFLLSSPDDAVIWRGPKKNGMIKQFLRDVDWGEVDYLIVDTPPGTSDEHLSVVRYLATAHIDGAVIITTPQEVSLQDVRKEINFCRKVKLPIIGVVENMSGFICPKCKKESQIFPPTTGGAELMCQDLEVPLLGRVPLDPLIGKNCDKGQSFFIDAPDSPATLAYRSIIQRIQEFCNLHQSKEENLISS	~4	> 32	> 32	> 32	–	–
nucleotide-binding protein 2 (NUBP2), endogenous (natural protein, human (endogenous in Flp-In T-REx 293), UniProt Q9Y5Y2 1-271, looked up, also called CFD1; source: endogenous, Flp-In T-REx 293 lysate) MEAAAEPGNLAGVRHIILVLSGKGGVGKSTISTELALALRHAGKKVGILDVDLCGPSIPRMLGAQGRAVHQCDRGWAPVFLDREQSISLMSVGFLLEKPDEAVVWRGPKKNALIKQFVSDVAWGELDYLVVDTPPGTSDEHMATIEALRPYQPLGALVVTTPQAVSVGDVRRELTFCRKTGLRVMGIVENMSGFTCPHCTECTSVFSRGGGEELAQLAGVPFLGSVPLDPALMRTLEEGHDFIQEFPGSPAFAALTSIAQKILDATPACLP	~4	> 32	> 32	> 32	–	–
cytosolic iron-sulfur assembly component 2B (CIAO2B) (natural protein, human (endogenous in Flp-In T-REx 293), UniProt Q9Y3D0 1-163, looked up, CIAO2B (cytosolic iron-sulfur assembly component 2B), component of the CIA targeting complex, endogenous; source: endogenous, Flp-In T-REx 293 lysate) MVGGGGVGGGLLENANPLIYQRSGERPVTAGEEDEQVPDSIDAREIFDLIRSINDPEHPLTLEELNVVEQVRVQVSDPESTVAVAFTPTIPHCSMATLIGLSIKVKLLRSLPQRFKMDVHITPGTHASEHAVNKQLADKERVAAALENTHLLEVVNQCLSARS	–	–	–	–	~5	2
probable cytosolic iron-sulfur protein assembly protein CIAO1 (natural protein, CIAO1, component of the CIA targeting complex, endogenous; source: endogenous, Flp-In T-REx 293 lysate) not shown	–	–	–	–	~5	2
MMS19 nucleotide excision repair protein homolog (MMS19) (natural protein, human (endogenous in Flp-In T-REx 293), UniProt Q96T76 1-1030, looked up, MMS19 nucleotide excision repair protein homolog, component of the CIA targeting complex, endogenous; source: endogenous, Flp-In T-REx 293 lysate) MAAAAAVEAAAPMGALWGLVHDFVVGQQEGPADQVAADVKSGNYTVLQVVEALGSSLENPEPRTRARAIQLLSQVLLHCHTLLLEKEVVHLILFYENRLKDHHLVIPSVLQGLKALSLCVALPPGLAVSVLKAIFQEVHVQSLPQVDRHTVYNIITNFMRTREEELKSLGADFTFGFIQVMDGEKDPRNLLVAFRIVHDLISRDYSLGPFVEELFEVTSCYFPIDFTPPPNDPHGIQREDLILSLRAVLASTPRFAEFLLPLLIEKVDSEVLSAKLDSLQTLNACCAVYGQKELKDFLPSLWASIRREVFQTASERVEAEGLAALHSLTACLSRSVLRADAEDLLDSFLSNILQDCRHHLCEPDMKLVWPSAKLLQAAAGASARACDSVTSNVLPLLLEQFHKHSQSSQRRTILEMLLGFLKLQQKWSYEDKDQRPLNGFKDQLCSLVFMALTDPSTQLQLVGIRTLTVLGAQPDLLSYEDLELAVGHLYRLSFLKEDSQSCRVAALEASGTLAALYPVAFSSHLVPKLAEELRVGESNLTNGDEPTQCSRHLCCLQALSAVSTHPSIVKETLPLLLQHLWQVNRGNMVAQSSDVIAVCQSLRQMAEKCQQDPESCWYFHQTAIPCLLALAVQASMPEKEPSVLRKVLLEDEVLAAMVSVIGTATTHLSPELAAQSVTHIVPLFLDGNVSFLPENSFPSRFQPFQDGSSGQRRLIALLMAFVCSLPRNVEIPQLNQLMRELLELSCCHSCPFSSTAAAKCFAGLLNKHPAGQQLDEFLQLAVDKVEAGLGSGPCRSQAFTLLLWVTKALVLRYHPLSSCLTARLMGLLSDPELGPAAADGFSLLMSDCTDVLTRAGHAEVRIMFRQRFFTDNVPALVQGFHAAPQDVKPNYLKGLSHVLNRLPKPVLLPELPTLLSLLLEALSCPDCVVQLSTLSCLQPLLLEAPQVMSLHVDTLVTKFLNLSSSPSMAVRIAALQCMHALTRLPTPVLLPYKPQVIRALAKPLDDKKRLVRKEAVSARGEWFLLGSPGS	–	–	–	–	~5	2
